Results taken from the supplement of paper PMC6757056.
± gives the standard deviation of the averaged measurements.

B1: library; a variant is named by its letters at N, in order (parent)
chain: GCUGUCACCGGUGUAUUACCCUAGUGGUCGACCGGUCUGAUGAGUCUNNNNNNAGACGAAACAGC

What was measured:
[1] = variants of: B1; assay: FACS-Seq fitted mean relative fluorescence mCherry/BFP without ligand (log10 relative fluorescence); ligand: hypoxanthine (xanthine aptamer); higher = higher reporter protein expression; details: HEK293T, ligand present: no
Description: (§1)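 Hammerhead (sTRSV) ribozyme switch libraries with a ligand aptamer grafted on stem I and a randomized N4-6 loop II, cloned into the 3' UTR of mCherry and transiently transfected into HEK293T cells; RNA-Seq 72 h post transfection with ligand added 1 h before transfection; RNA read count / plasmid DNA read count normalized to the non-cleaving sTRSVctl (x100), log10; sequences with >100 DNA reads. FACS-Seq: lentiviral library sorted into 6 bins after 48 h ligand, log-normal fit mean of mCherry/BFP scaled to controls. Printed sequences are partial switch sequences.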

[2] = variants of: B1; assay: normalized RNA/DNA level with ligand (relative to sTRSVctl = 100) (log10 (% of sTRSVctl)); ligand: hypoxanthine (xanthine aptamer); higher = less ribozyme self-cleavage, higher mRNA level; details: ligand concentration (+) RNA-Seq: 5 mM, HEK293T, reporter: mCherry (pCS4076), ligand present: yes
Description: as §1

[3] = variants of: B1; assay: normalized RNA/DNA level without ligand (relative to sTRSVctl = 100) (log10 (% of sTRSVctl)); ligand: hypoxanthine (xanthine aptamer); higher = less ribozyme self-cleavage, higher mRNA level; details: HEK293T, reporter: mCherry (pCS4076), ligand present: no
Description: as §1

[4] = variants of: B1; assay: FACS-Seq fitted mean relative fluorescence mCherry/BFP with ligand (log10 relative fluorescence); ligand: hypoxanthine (xanthine aptamer); ligand concentration (+) FACS-Seq: 5 mM; higher = higher reporter protein expression; details: HEK293T, ligand present: yes
Description: as §1

Variant	FACS-Seq fitted mean (log10) [1]	normalized RNA/DNA level with ligand (log10) [2]	normalized RNA/DNA level without ligand (log10) [3]	FACS-Seq fitted mean (log10) [4]
AACAGU	-0.0447 ± 0.045	1.87 ± 0.047	1.54 ± 0.018	0.4214 ± 0.0042
GACCGU	0.658 ± 0.04	1.933 ± 0.0015	1.91 ± 0.0056	0.698 ± 0.013
GAAGUU	-0.155 ± 0.12	1.966 ± 0.0047	1.831 ± 0.008	-0.587 ± 0.17
GAAGUG	-0.0452 ± 0.0093	1.8 ± 0.024	1.276 ± 0.012	0.468 ± 0.037
UACCAA	-0.105 ± 0.11	1.92 ± 0.036	1.838 ± 0.011	-0.235 ± 0.035
UACCAG	0.0403 ± 0.078	1.87 ± 0.015	1.589 ± 0.0032	0.0509 ± 0.085
GAAUUC	0.407 ± 0.28	1.929 ± 0.0056	1.9 ± 0.039	0.388 ± 0.089
GAAUUA	0.374 ± 0.05	1.91 ± 0.043	1.804 ± 0.012	0.557 ± 0.089
GAAUUG	0.0724 ± 0.04	1.81 ± 0.032	1.4 ± 0.076	0.434 ± 0.011
GACCCC	0.0047 ± 0.072	1.94 ± 0.019	1.87 ± 0.038	0.161 ± 0.06
GACCCU	-0.308 ± 0.41	1.99 ± 0.023	1.972 ± 0.0096	0.1808 ± 0.00023
GACCCG	0.0296 ± 0.027	1.89 ± 0.022	1.632 ± 0.016	0.292 ± 0.047
AAAGGU	0.195 ± 0.021	1.9 ± 0.054	1.61 ± 0.053	0.526 ± 0.025
AAAGGG	0.0328 ± 0.0085	1.753 ± 0.0035	1.32 ± 0.073	0.292 ± 0.084
AAAGGA	0.0795 ± 0.041	1.9 ± 0.031	1.58 ± 0.037	-0.105 ± 0.2
AAAGGC	-0.66 ± 0.0082	1.91 ± 0.035	1.781 ± 0.0092	-0.684 ± 0.085
CAAUAA	0.566 ± 0.035	1.89 ± 0.04	1.654 ± 0.0078	0.578 ± 0.07
CAAUAC	0.32 ± 0.022	1.93 ± 0.069	1.767 ± 0.01	0.507 ± 0.0056
UAAUUU	-0.253 ± 0.046	1.98 ± 0.034	1.892 ± 0.01	-0.129 ± 0.063
UAAUUC	0.569 ± 0.0061	1.96 ± 0.029	1.91 ± 0.0049	0.671 ± 0.032
UAAUUA	0.737 ± 0.055	1.92 ± 0.081	1.87 ± 0.032	0.65 ± 0.063
AAAGCU	-0.307 ± 0.014	1.94 ± 0.026	1.85 ± 0.034	-0.41 ± 0.022
AAAGCA	0.391 ± 0.034	1.93 ± 0.043	1.77 ± 0.035	0.503 ± 0.023
AAAGCG	0.0919 ± 0.015	1.82 ± 0.026	1.32 ± 0.086	0.539 ± 0.023

Variant	FACS-Seq fitted mean (log10) [1]	normalized RNA/DNA level with ligand (log10) [2]	normalized RNA/DNA level without ligand (log10) [3]	FACS-Seq fitted mean (log10) [4]
UACCCC	0.5672 ± 0.0022	1.95 ± 0.062	1.9 ± 0.064	0.523 ± 0.047
CACCGA	0.374 ± 0.048	1.94 ± 0.0088	1.8 ± 0.038	0.516 ± 0.011
UAACUG	0.142 ± 0.042	1.896 ± 0.018	1.64 ± 0.017	0.31 ± 0.084
UAACUA	0.0691 ± 0.014	1.921 ± 0.0071	1.879 ± 0.0092	-0.0104 ± 0.0014
UAAGUG	-0.334 ± 0.04	1.891 ± 0.0081	1.653 ± 0.015	0.146 ± 0.027
UACAGG	0.231 ± 0.044	1.838 ± 0.014	1.41 ± 0.035	0.661 ± 0.032
UACAGA	0.0904 ± 0.019	1.908 ± 0.018	1.54 ± 0.02	0.383 ± 0.04
UACAGC	0.821 ± 0.21	1.96 ± 0.019	1.898 ± 0.013	0.655 ± 0.12
AACCAG	0.356 ± 0.091	1.82 ± 0.027	1.41 ± 0.049	0.678 ± 0.017
AACCAC	0.0153 ± 0.085	1.91 ± 0.036	1.78 ± 0.037	0.246 ± 0.02
GAAUAC	0.23 ± 0.012	1.89 ± 0.044	1.713 ± 0.0067	0.499 ± 0.062
GAAUAG	0.0583 ± 0.0095	1.786 ± 0.011	1.35 ± 0.026	0.459 ± 0.05
GAAUAA	0.317 ± 0.056	1.91 ± 0.04	1.78 ± 0.0034	0.497 ± 0.03
CACCAC	0.232 ± 0.012	1.92 ± 0.056	1.81 ± 0.063	0.406 ± 0.036
UAAGCG	-0.442 ± 0.031	1.909 ± 0.0091	1.6 ± 0.024	0.233 ± 0.018
AACACC	0.754 ± 0.017	1.9322 ± 0.00016	1.9 ± 0.02	0.806 ± 0.073
AACACA	0.00339 ± 0.015	1.9 ± 0.055	1.83 ± 0.023	-0.0536 ± 0.037
AACACG	0.0502 ± 0.00077	1.85 ± 0.046	1.4 ± 0.045	0.412 ± 0.037
AAAGUG	0.148 ± 0.035	1.81 ± 0.034	1.31 ± 0.043	0.47 ± 0.012
AAAGUU	0.306 ± 0.0051	1.91 ± 0.026	1.823 ± 0.0039	0.548 ± 0.017
AAAGUA	0.554 ± 0.029	1.9 ± 0.023	1.73 ± 0.053	0.61 ± 0.032
CAAUCC	0.406 ± 0.038	1.97 ± 0.086	1.82 ± 0.026	0.468 ± 0.05
GACAUG	0.405 ± 0.11	1.81 ± 0.032	1.4 ± 0.0058	0.472 ± 0.081
GACAUA	0.382 ± 0.011	1.91 ± 0.027	1.79 ± 0.027	0.373 ± 0.037

Variant	FACS-Seq fitted mean (log10) [1]	normalized RNA/DNA level with ligand (log10) [2]	normalized RNA/DNA level without ligand (log10) [3]	FACS-Seq fitted mean (log10) [4]
UACCGG	0.141 ± 0.038	1.91 ± 0.0042	1.63 ± 0.038	0.197 ± 0.15
UACCGA	0.439 ± 0.021	1.91 ± 0.041	1.75 ± 0.024	0.551 ± 0.044
UACCGU	0.0177 ± 0.0044	1.95 ± 0.08	1.7185 ± 0.00046	0.448 ± 0.028
UAAGAA	0.349 ± 0.3	1.91 ± 0.025	1.68 ± 0.011	0.395 ± 0.051
UAAGAG	0.312 ± 0.071	1.833 ± 0.013	1.528 ± 0.011	0.422 ± 0.032
UAAGAC	0.419 ± 0.024	1.87 ± 0.05	1.82 ± 0.035	0.507 ± 0.024
AACCCG	0.577 ± 0.077	1.84 ± 0.088	1.378 ± 0.013	0.751 ± 0.043
AACCCA	0.217 ± 0.063	1.92 ± 0.022	1.85 ± 0.042	0.245 ± 0.0026
GACAGG	-0.206 ± 0.16	1.765 ± 0.012	1.27 ± 0.033	-0.557 ± 0.034
GACAGA	0.4408 ± 0.00062	1.91 ± 0.038	1.65 ± 0.035	0.594 ± 0.088
GACAGU	-0.268 ± 0.11	1.926 ± 0.0025	1.8 ± 0.045	0.146 ± 0.025
GACAGC	0.379 ± 0.028	1.965 ± 0.007	1.74 ± 0.084	0.554 ± 0.047
GAAGGG	-0.0424 ± 0.023	1.806 ± 0.01	1.324 ± 0.0061	0.431 ± 0.059
GAAGGA	0.247 ± 0.034	1.92 ± 0.021	1.64 ± 0.031	0.559 ± 0.021
UAAUAA	0.267 ± 0.015	1.902 ± 0.012	1.78 ± 0.023	0.321 ± 0.019
UAAUAG	0.548 ± 0.036	1.874 ± 0.0076	1.631 ± 0.014	0.666 ± 0.019
UAAUAU	0.353 ± 0.012	1.91 ± 0.061	1.796 ± 0.005	0.558 ± 0.096
CAAUUA	0.8094 ± 0.0076	1.89 ± 0.049	1.728 ± 0.0045	0.753 ± 0.03
CAAUUG	0.324 ± 0.016	1.96 ± 0.026	1.894 ± 0.014	0.498 ± 0.044
CAAUUU	-0.039 ± 0.03	1.932 ± 0.015	1.83 ± 0.034	0.406 ± 0.03
GAAUCA	0.438 ± 0.055	1.94 ± 0.065	1.809 ± 0.013	0.46 ± 0.066
GAAUCG	0.14 ± 0.0063	1.84 ± 0.02	1.4 ± 0.053	0.439 ± 0.05
AACAAG	0.124 ± 0.013	1.85 ± 0.051	1.41 ± 0.098	0.462 ± 0.033
AACAAU	0.434 ± 0.044	1.89 ± 0.023	1.74 ± 0.042	0.249 ± 0.16
